doi:10.1101/2021.01.13.426575 (bioRxiv, 2021)
Like-named read-outs stand apart in the source and are kept apart here. Blank lines part the entries; values can stand above or below the binder they belong to.

B1: DPP9, short isoform (DPP9S), co-expressed with CARD8 for cryo-EM (enzyme, human)
chain: MATTGTPTADRGDAAATDDPAARFQVQKHSWDGLRSIIHGSRKYSGLIVNKAPHDFQFVQKTDESGPHSHRLYYLGMPYGSRENSLLYSEIPKKVRKEALLLLSWKQMLDHFQATPHHGVYSREEELLRERKRLGVFGITSYDFHSESGLFLFQASNSLFHCRDGGKNGFMVSPMKPLEIKTQCSGPRMDPKICPADPAFFSFINNSDLWVANIETGEERRLTFCHQGLSNVLDDPKSAGVATFVIQEEFDRFTGYWWCPTASWEGSEGLKTLRILYEEVDESEVEVIHVPSPALEERKTDSYRYPRTGSKNPKIALKLAEFQTDSQGKIVSTQEKELVQPFSSLFPKVEYIARAGWTRDGKYAWAMFLDRPQQWLQLVLLPPALFIPSTENEEQRLASARAVPRNVQPYVVYEEVTNVWINVHDIFYPFPQSEGEDELCFLRANECKTGFCHLYKVTAVLKSQGYDWSEPFSPGEDEFKCPIKEEIALTSGEWEVLARHGSKIWVNEETKLVYFQGTKDTPLEHHLYVVSYEAAGEIVRLTTPGFSHSCSMSQNFDMFVSHYSSVSTPPCVHVYKLSGPDDDPLHKQPRFWASMMEAASCPPDYVPPEIFHFHTRSDVRLYGMIYKPHALQPGKKHPTVLFVYGGPQVQLVNNSFKGIKYLRLNTLASLGYAVVVIDGRGSCQRGLRFEGALKNQMGQVEIEDQVEGLQFVAEKYGFIDLSRVAIHGWSYGGFLSLMGLIHKPQVFKVAIAGAPVTVWMAYDTGYTERYMDVPENNQHGYEAGSVALHVEKLPNEPNRLLILHGFLDENVHFFHTNFLVSQLIRAGKPYQLQIYPNERHSIRCPESGEHYEVTLLHFLQEYL
B3: Full-length CARD8 (T60 isoform), wild type, co-expressed with DPP9S for cryo-EM (natural protein, human, UniProt Q9Y2G2-5 1-537, looked up)
chain: MEKKECPEKSSSSEEELPRRDSGSSRNIDASKLIRLQGSRKLLVDNSIRELQYTKTGIFFQAEACVTNDTVYRELPCVSETLCDISHFFQEDDETEAEPLLFRAVPECQLSGGDIPSVSEEQESSEGQDSGDICSEENQIVSSYASKVCFEIEEDYKNRQFLGPEGNVDVELIDKSTNRYSVWFPTAGWYLWSATGLGFLVRDEVTVTIAFGSWSQHLALDLQHHEQWLVGGPLFDVTAEPEEAVAEIHLPHFISLQAGEVDVSWFLVAHFKNEGMVLEHPARVEPFYAVLESPSFSLMGILLRIASGTRLSIPITSNTLIYYHPHPEDIKFHLYLVPSDALLTKAIDDEEDRFHGVRLQTSPPMEPLNFGSSYIVSNSANLKVMPKELKLSYRSPGEIQHFSKFYAGQMKEPIQLEITEKRHGTLVWDTEVKPVDLQLVAASAPPPFSGAAFVKENHRQLQARMGDLKGVLDDLQDNEVLTENEKELVEQEKTRQSKNEALLSMVEKKGDLALDVLFRSISERDPYLVSYLRQQNL

How the values were obtained:
Test in all cases: cryo-EM structure
[1] = target: B3
[2] = target: B1
[3] = target: B1; remark: listed apart in the source

- binding result [1]: binds
B2: CARD8-CT (N-terminally degraded CARD8, UPA-CARD) in the purified CARD8-DPP9 complex (domain or fragment, human, UniProt Q9Y2G2-5 297-537, looked up)
chain: SLMGILLRIASGTRLSIPITSNTLIYYHPHPEDIKFHLYLVPSDALLTKAIDDEEDRFHGVRLQTSPPMEPLNFGSSYIVSNSANLKVMPKELKLSYRSPGEIQHFSKFYAGQMKEPIQLEITEKRHGTLVWDTEVKPVDLQLVAASAPPPFSGAAFVKENHRQLQARMGDLKGVLDDLQDNEVLTENEKELVEQEKTRQSKNEALLSMVEKKGDLALDVLFRSISERDPYLVSYLRQQNL

- binding result [3]: binds
B4: Full-length CARD8 S297A (autoproteolysis-deficient), co-expressed with DPP9S for cryo-EM (natural protein, human, UniProt Q9Y2G2-5 1-537, looked up)
chain: MEKKECPEKSSSSEEELPRRDSGSSRNIDASKLIRLQGSRKLLVDNSIRELQYTKTGIFFQAEACVTNDTVYRELPCVSETLCDISHFFQEDDETEAEPLLFRAVPECQLSGGDIPSVSEEQESSEGQDSGDICSEENQIVSSYASKVCFEIEEDYKNRQFLGPEGNVDVELIDKSTNRYSVWFPTAGWYLWSATGLGFLVRDEVTVTIAFGSWSQHLALDLQHHEQWLVGGPLFDVTAEPEEAVAEIHLPHFISLQAGEVDVSWFLVAHFKNEGMVLEHPARVEPFYAVLESPSFALMGILLRIASGTRLSIPITSNTLIYYHPHPEDIKFHLYLVPSDALLTKAIDDEEDRFHGVRLQTSPPMEPLNFGSSYIVSNSANLKVMPKELKLSYRSPGEIQHFSKFYAGQMKEPIQLEITEKRHGTLVWDTEVKPVDLQLVAASAPPPFSGAAFVKENHRQLQARMGDLKGVLDDLQDNEVLTENEKELVEQEKTRQSKNEALLSMVEKKGDLALDVLFRSISERDPYLVSYLRQQNL

Second part, the binder before the results:

Binder: B1
- stoichiometry N [1]: 1

Binder: B3
- binding result [2]: binds
